Laboratory results from the supplement of paper PMC12042874.
± gives the uncertainty stated by the source.

assay: amyloid nucleation score (Sup35N fusion, yeast selection) (log enrichment); library NNK2; higher = more nucleation; inactive = no reads after selection
In short: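 On medium lacking adenine and uracil, psi-negative yeast expressing peptides of 20 random codons fused to Sup35N were grown 7 days at 30°C after a 24-hour induction with 100 μM copper sulfate. Illumina sequencing of input and output plasmid inserts gave the reads, and sequences under 100 input reads were excluded. The nucleation score is the DiMSum log enrichment of output over input reads, centred on the mode score of non-aggregating sequences.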

Substance | amyloid nucleation score
VEFLWGFWWYKPQRKSVGST | -1.54 ± 0.75
SSLVVMMGILMEVTVAGLGV | 0.241 ± 0.37
SFYDARYFQCDVFAVVRIRR | 0.853 ± 0.47
GGWYDPGCSGGDIITDEVDW | -0.159 ± 0.55
MNACSQGVSQSSDFQL | 5.08 ± 0.066
LISVDFRYYGYVVLGWISTL | 0.807 ± 0.1
LNWTTGFSDSAPVICPDTMH | -1.56 ± 1.1
SLAFYTTYNNKILGNS | 3.08 ± 0.069
MWLGLTRRMVITSCYN | 0.461 ± 0.36
KRHMVSS | 1.72 ± 0.42
SWLRMSTDVIGLRWFDGNA | 4.84 ± 0.065
FVWSFHCCMARWYGLGCSYM | 1.1 ± 0.15
MVFFLLQLATAAVFSF | -0.073 ± 1
KGKDS | -0.037 ± 0.39
TGCVDVAEMVNP | 0.138 ± 0.48
VNWLCRSWRSNRSLEG | 4.33 ± 0.087
DQKAIVMVRNLDAWVGCAHY | 0.266 ± 0.46
RTMSNGSDVCFNNGMFHYLN | -1.04 ± 0.76
NLLLLTVRKLNAVNMSTPPY | 2.05 ± 0.21
MTCSTWMQLVRYTSVICILT | inactive
NWSVTGCQLRGGRTEGNGIR | 0.122 ± 0.5
LCGMLYAAAGHWFSVMPPGD | 0.997 ± 0.32
TFMRKCIFMFLFVIFSFYSS | 2.03 ± 0.11
PVMDNLFSKAFVG | -0.741 ± 0.5
TSGMNDITR | -0.093 ± 0.23

Substance | amyloid nucleation score
CGCCRTRGL | 2.94 ± 0.054
PFTMSVFKSYKIAQRSSWAW | 2.5 ± 0.089
RWDCGGGTNCSGENIWQGET | -0.083 ± 0.34
VNAPGTSYGYYVLNVQWGGW | 1.12 ± 0.26
WVVRK | -1.76 ± 0.44
EFANWFVGYNQGSLGHALKQ | 0.355 ± 0.42
LTGALREFPIYSGANDIWWR | -0.796 ± 0.44
LTDSKSALRLAMR | 4.48 ± 0.039
IKCRVITQSCIPSSINRLDG | -0.114 ± 1.1
RPNDMHTT | -0.064 ± 0.26
CSVVGWE | 0.671 ± 0.66
LYRSVGFGIVEFDH | inactive
VVPCWSVNKDSRSDRSD | -0.1 ± 1
ECERERYLLGTRT | 0.322 ± 0.25
ESYCAC | 1.55 ± 0.28
SCNAGVGSIS | -0.011 ± 0.46
VVYLEIVTRGATGYLVCLPC | -0.437 ± 0.6
TLFNMLDYSVVWYLFTSIHR | -1.44 ± 1.1
ADDCLRTCSNKLKTQAGLW | 1.38 ± 0.35
YQLIGFTKVIRFHSVELIEP | inactive
PQWEKRFKYTNEWAATFNGL | inactive
TRADDL | 0.205 ± 0.4
YNLFYELNLVLIP | 6.137 ± 0.05
CCILVSWFGIHSRCGVRCAR | 0.877 ± 0.3
TALDAGHA | -1.19 ± 0.45

Substance | amyloid nucleation score
GSSVDGADMIGTLK | 1.46 ± 0.28
TVAMSGASQYDEYVSESMMT | 0.061 ± 0.27
CNVTIIYVPYGEWTTFYLRL | 7.45 ± 0.082
TNCGRVINRSSVVHAFNYGV | inactive
RVLRLVSVLLFDVILSVE | 4.85 ± 0.085
KCWNRYKHSDDIYGVGFPSI | -1.09 ± 1
TYLVQWMCCRWMPMHFRIMT | -0.369 ± 0.79
CAMDCSSVQGGSTITKCHTM | 0.218 ± 1.1
NSLGRYSFRFVRCEGVWKTR | -0.88 ± 0.76
TLYSVSLGKEFYYG | 0.192 ± 0.46
LRNMPRVQQVCPYFINVRGK | 2.25 ± 0.082
AMYICLRVIGSSGRSVMASK | 0.782 ± 0.16
PKFTMVPNNGMQVGIARNKW | 0.43 ± 0.29
MGVDLPIASLCSNCGEAGLG | 0.199 ± 0.43
CWVRISDLCLYKFVGVPMSV | 0.312 ± 0.8
FTKKFYWGYPWCYMVF | -0.229 ± 0.8
TVKNRA | 0.694 ± 0.51
ASIYNFYVLNSPFLF | 4.73 ± 0.081
RTFVVNQVEWDVYIWRSGSV | 0.004 ± 0.56
PCCVKSELGLPQWWSVYL | 5.645 ± 0.056
TRNGWGSTGSLQRSQVSVWS | 0.25 ± 0.42
SAFTNRYHLPSERVGHWCPV | 0.224 ± 0.74
FFVKNASSSFFLLKRLSWT | -0.59 ± 1.1
LFSALFGRW | 4.26 ± 0.05
IESRL | inactive

Substance | amyloid nucleation score
RMMVGALAGFMV | 0.578 ± 0.35
IDVMVMVRQSAKEQSSVRGC | 1.34 ± 0.2
LTTMFFIMCHEFNLLAVFNY | 1.27 ± 0.26
VRFYVCLFLRNEMKVGRMTW | 3.86 ± 0.064
IYIWCARHEILWYRNGWGRG | 0.2 ± 0.36
QWSFPAILRLDTNTSRYYFQ | -0.776 ± 1.1
GFVQDAEYRISRSCLRCILM | 4.03 ± 0.089
REKVPYT | -0.428 ± 0.48
ALEVLTTLRISLPSHKGSSF | 5.533 ± 0.051
CHLHIYGTRIERAYHRDFFL | 3.4 ± 0.1
ANKTSPICSCVFNEL | 6.3 ± 0.088
PWCESLCVRRGAESVSTWVK | 1.2 ± 0.22
FRRLNTATRRCVTSG | -1.13 ± 0.55
LFMKRER | -0.179 ± 0.76
KRVFKLSESTTRVIMWGRYS | inactive
NRSVCLYYFAQVYKCCSNAV | 3.42 ± 0.14
NIQTWGSGHVSTSDG | 3.24 ± 0.089
VYNLARSRSKAERVV | 0.201 ± 1
DRVCAGLKPVRNN | 0.836 ± 0.31
FHIQTRCMCGGMRYIFYVWY | 0.432 ± 0.8
RVYDGAVVR | 0.547 ± 0.34
VTGTT | -0.01 ± 1
VRFTLYGCWGLMFFTMVGR | inactive
ILLYNCCCEGWACKSWLGSH | inactive
ERFPDCCLFNLDVFVSVLNI | 5.022 ± 0.027

Substance | amyloid nucleation score
TNAACSPLTCGHQMAVSPNY | 0.358 ± 0.32
LTVRELLFTSRRHRARRHSC | 1.81 ± 0.32
RYFINSMFLGWTPFVSVNLS | -0.107 ± 0.27
KKVRNC | 0.436 ± 0.8
DLVVMSLRR | 6.18 ± 0.057
CVTDATVKNYI | -1.42 ± 0.78
NVPKSSINEWSLPDLLVLNV | 0.923 ± 0.81
VGVVGYVETSLLGLRRCG | -0.976 ± 0.54
LILDILSRGSAYYDCTRMKG | inactive
PIFYSPLAFMLRMYHNG | -0.998 ± 0.38
GGGHMFFAGQ | -1.28 ± 1.1
SSEIKRSWGYFLSLLWFYYR | -0.696 ± 1
MGSFKC | -1.32 ± 0.63
KLRVFPLKESVSQGALQTVG | -0.476 ± 0.44
HCNLSWSCTSGIALSRT | 4.54 ± 0.1
KSNLCLNVHGSLGICPTHDL | 0.178 ± 0.37
IFNDVIFNLRFC | 7.443 ± 0.054
MRRTPFCVWKHIYRM | 0.182 ± 1.1
ICYKVLAMDLMLCMSGGVLV | 2.1 ± 0.092
SLPPLMWGAMMRRRRRGSST | 5.717 ± 0.056
FFRGDVQYWRLILKYLCLLM | -1.28 ± 0.49
GGKTYNSTVVDVCDHAFCDY | -0.924 ± 1.1
CSYCFCCVH | 8.29 ± 0.065
SILATYPMVRSRISIMNATL | -0.174 ± 0.28
ADHELVVITDVGFRLGSTGD | -0.226 ± 0.37

Substance | amyloid nucleation score
AILSEGETGFVSDYRQVSEP | -0.004 ± 0.34
RIDGVFTIVSFYMELEGIRV | inactive
GVAMNNCGIMDSREHGFGIR | 0.436 ± 0.36
DGFHQCAS | 3.74 ± 0.089
CVLSKEI | 0.387 ± 0.3
DKYFLLAYGVWGSLRFLTLC | -0.288 ± 1
RTPPISMGKHNFVYVSSVCG | -1.1 ± 0.36
GECHEWV | -0.837 ± 1.1
SNWNTTPVSPS | 0.514 ± 0.44
SSCYSVLGMRL | inactive
TPSKKDGECWNFYRTMWFTG | -0.492 ± 0.79
IDWCFGRRENVGGHVRWRNG | 1.48 ± 0.3
VTGIATTS | 0.44 ± 0.3
REKVVKEPRTDESFVGRGGS | 0.724 ± 0.28
TQDDAHQVRGQCVPSENIGP | 1.96 ± 0.21
NCGKLHQF | 0.403 ± 0.5
VLSLSVDFSCKRSCIMDTQV | 3.95 ± 0.087
MKKFLGWRYELNCWVLYNSG | -1.16 ± 0.76
SGRIYSGDETMFRWECRYWC | 3.25 ± 0.051
YNVDDCSHRDRFIDNRDSEC | inactive
TMLSESTVQTKRVRMQESRR | 7.03 ± 0.071
FTVDCLVVIFVYIEPMNWMG | 0.672 ± 0.62
CRRHVMFYTCMLE | 4.27 ± 0.064
FGFIYGTRVEGLSIVSRQSR | 2.36 ± 0.14
NVPCGYEWSFNLCIMGEASS | 6.842 ± 0.049

Substance | amyloid nucleation score
GLDMDGSVLPFVFYRSMYGE | 0.136 ± 0.55
RIFTFLSVSHPN | 4.53 ± 0.053
FIYCVTFVDDCRYVINLRGT | 7.964 ± 0.079
LLLGINSCQEQPKGSFEERH | -0.91 ± 1.1
VILAIGNFSRI | 3.08 ± 0.081
VLVSGYDLVVVDRVYLGRMF | 2.56 ± 0.085
VFEAIMVYSFRRYFPPYGAF | 2.62 ± 0.098
YSWKFFCRWNEQD | 1.04 ± 0.59
RESWLAGMSVYWANSGMSFA | -0.487 ± 0.36
HMSGLNGLGCLGTCLWLCSS | inactive
LSPVVRSMKDVLQCESVDDR | 0.191 ± 0.5
NPTHLLPHTEIGVLDTCAF | 0.265 ± 1.1
FISHIYLNESQQKSSALNTL | -1.32 ± 0.53
LRGHRPFLVY | -0.02 ± 1.1
TMSHEFV | 0.085 ± 0.6
LNNRISNVAAGSSLRIYLMD | 2.79 ± 0.062
ELVYHLSNLKG | -0.381 ± 1.1
CFRDTFERSFKFLERPNIMH | 1.26 ± 0.19
SVRNNLAVGDKLFNVTADCN | 0.168 ± 0.8
HSFGRKYFFTF | -0.307 ± 0.55
ISLFDYGQGMFHRCFMAVKG | -0.131 ± 0.6
GVYWILFIAWLRKVRWYSDV | -0.144 ± 0.32
